Test results reported in paper PMC9408373, “CDC42-IQGAP Interactions Scrutinized: New Insights into the Binding Properties of the GAP-Related Domain” (International Journal of Molecular Sciences, 2022).

T1: human IQGAP2 GRD2 (aa 875-1246) (human, UniProt Q13576 875-1246)
T1 construct: source: E. coli, purified (glutathione Sepharose), GST cleaved with thrombin; not shown: GST, N-terminal, cleaved
T1 sequence (looked up): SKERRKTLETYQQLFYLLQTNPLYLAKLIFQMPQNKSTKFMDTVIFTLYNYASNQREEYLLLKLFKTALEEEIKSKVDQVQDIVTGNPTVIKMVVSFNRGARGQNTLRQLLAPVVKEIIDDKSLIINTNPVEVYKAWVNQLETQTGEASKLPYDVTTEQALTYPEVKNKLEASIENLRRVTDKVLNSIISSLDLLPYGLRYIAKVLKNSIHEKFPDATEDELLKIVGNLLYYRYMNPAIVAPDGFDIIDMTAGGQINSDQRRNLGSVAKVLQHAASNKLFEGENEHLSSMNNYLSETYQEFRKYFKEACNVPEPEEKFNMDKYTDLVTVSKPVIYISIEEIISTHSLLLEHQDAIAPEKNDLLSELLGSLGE

B1: human CDC42 (aa 1-178) Q61L (natural protein)
chain: not shown
notes: also called CDC42^Q61L; CDC42(Q61L); source: E. coli, purified (glutathione Sepharose), GST cleaved with thrombin; not shown: GST, N-terminal, cleaved
B2: human IQGAP1 C794 (aa 863-1657) (domain or fragment, UniProt P46940 863-1657, looked up)
chain: DPPMVVVRKFVHLLDQSDQDFQEELDLMKMREEVITLIRSNQQLENDLNLMDIKIGLLVKNKITLQDVVSHSKKLTKKNKEQLSDMMMINKQKGGLKALSKEKREKLEAYQHLFYLLQTNPTYLAKLIFQMPQNKSTKFMDSVIFTLYNYASNQREEYLLLRLFKTALQEEIKSKVDQIQEIVTGNPTVIKMVVSFNRGARGQNALRQILAPVVKEIMDDKSLNIKTDPVDIYKSWVNQMESQTGEASKLPYDVTPEQALAHEEVKTRLDSSIRNMRAVTDKFLSAIVSSVDKIPYGMRFIAKVLKDSLHEKFPDAGEDELLKIIGNLLYYRYMNPAIVAPDAFDIIDLSAGGQLTTDQRRNLGSIAKMLQHAASNKMFLGDNAHLSIINEYLSQSYQKFRRFFQTACDVPELQDKFNVDEYSDLVTLTKPVIYISIGEIINTHTLLLDHQDAIAPEHNDPIHELLDDLGEVPTIESLIGESSGNLNDPNKEALAKTEVSLTLTNKFDVPGDENAEMDARTILLNTKRLIVDVIRFQPGETLTEILETPATSEQEAEHQRAMQRRAIRDAKTPDKMKKSKSVKEDSNLTLQEKKEKIQTGLKKLTELGTVDPKNKYQELINDIARDIRNQRRYRQRRKAELVKLQQTYAALNSKATFYGEQVDYYKSYIKTCLDNLASKGKVSKKPREMKGKKSKKISLKYTAARLHEKGVLLEIEDLQVNQFKNVIFEISPTEEVGDFEVKAKFMGVQMETFMLHYQDLLQLQYEGVAVMKLFDRAKVNVNLLIFLLNKKFYGK
notes: source: E. coli, purified (glutathione Sepharose), GST cleaved with thrombin; not shown: GST, N-terminal, cleaved
B3: human CDC42 (aa 1-178), wild type (natural protein)
chain: not shown
notes: Loaded with mant-GppNHp or mant-GDP (fluorescence assays) or GppNHp (SEC); also called CDC42 WT; CDC42^wt; source: E. coli, purified (glutathione Sepharose), GST cleaved with thrombin; not shown: GST, N-terminal, cleaved
B4: human IQGAP2 C795 (aa 780-1575) (domain or fragment, UniProt Q13576 780-1575, looked up)
chain: PLTVIRKFVYLLDQSDLDFQEELEVARLREEVVTKIRANQQLEKDLNLMDIKIGLLVKNRITLEDVISHSKKLNKKKGGEMEILNNTDNQGIKSLSKERRKTLETYQQLFYLLQTNPLYLAKLIFQMPQNKSTKFMDTVIFTLYNYASNQREEYLLLKLFKTALEEEIKSKVDQVQDIVTGNPTVIKMVVSFNRGARGQNTLRQLLAPVVKEIIDDKSLIINTNPVEVYKAWVNQLETQTGEASKLPYDVTTEQALTYPEVKNKLEASIENLRRVTDKVLNSIISSLDLLPYGLRYIAKVLKNSIHEKFPDATEDELLKIVGNLLYYRYMNPAIVAPDGFDIIDMTAGGQINSDQRRNLGSVAKVLQHAASNKLFEGENEHLSSMNNYLSETYQEFRKYFKEACNVPEPEEKFNMDKYTDLVTVSKPVIYISIEEIISTHSLLLEHQDAIAPEKNDLLSELLGSLGEVPTVESFLGEGAVDPNDPNKANTLSQLSKTEISLVLTSKYDIEDGEAIDSRSLMIKTKKLIIDVIRNQPGNTLTEILETPATAQQEVDHATDMVSRAMIDSRTPEEMKHSQSMIEDAQLPLEQKKRKIQRNLRTLEQTGHVSSENKYQDILNEIAKDIRNQRIYRKLRKAELAKLQQTLNALNKKAAFYEEQINYYDTYIKTCLDNLKRKNTRRSIKLDGKGEPKGAKRAKPVKYTAAKLHEKGVLLDIDDLQTNQFKNVTFDIIATEDVGIFDVRSKFLGVEMEKVQLNIQDLLQMQYEGVAVMKMFDKVKVNVNLLIYLLNKKFYGK
notes: as for B2
B5: human IQGAP1 GRD1 (aa 962-1345) (domain or fragment, UniProt P46940 962-1345, looked up)
chain: SKEKREKLEAYQHLFYLLQTNPTYLAKLIFQMPQNKSTKFMDSVIFTLYNYASNQREEYLLLRLFKTALQEEIKSKVDQIQEIVTGNPTVIKMVVSFNRGARGQNALRQILAPVVKEIMDDKSLNIKTDPVDIYKSWVNQMESQTGEASKLPYDVTPEQALAHEEVKTRLDSSIRNMRAVTDKFLSAIVSSVDKIPYGMRFIAKVLKDSLHEKFPDAGEDELLKIIGNLLYYRYMNPAIVAPDAFDIIDLSAGGQLTTDQRRNLGSIAKMLQHAASNKMFLGDNAHLSIINEYLSQSYQKFRRFFQTACDVPELQDKFNVDEYSDLVTLTKPVIYISIGEIINTHTLLLDHQDAIAPEHNDPIHELLDDLGEVPTIESLIGESS
notes: as for B2

Assays:
Conditions in all cases: both partners purified
[1] = biological target: T1, human IQGAP2 GRD2 (aa 875-1246); experiment: fluorescence polarisation; 1 µM mant-GppNHp-bound CDC42 in the cuvette, IQGAP protein titrated; quadratic ligand binding equation
[2] = biological target: B5; experiment: as above
[3] = biological target: B3; experiment: fluorescence polarisation; 1 µM mant-GDP-bound CDC42 in the cuvette, IQGAP protein titrated; quadratic ligand binding equation
[4] = biological target: B2; experiment: fluorescence polarisation; 1 µM mant-GppNHp-bound CDC42 in the cuvette, IQGAP protein titrated; quadratic ligand binding equation
[5] = biological target: B4; experiment: as above
[6] = biological target: B3; experiment: SEC; GppNHp-bound CDC42 mixed with IQGAP1 GRD1; Superdex 200 10/300, 30 mM Tris/HCl pH 7.5, 150 mM NaCl, 5 mM MgCl2; stoichiometry from calibrated elution volumes
[7] = biological target: B1; experiment: as above

| Kd [1] [µM] | Kd [2] [µM] | fold higher affinity for mGppNHp-bound than for mGDP-bound CDC42 [3] [fold] | Binder | also measured |
| --- | --- | --- | --- | --- |
| 2.5 | 2.7 | – | B1 | – |
| – | – | ~100 | B2 | – |
| 69 | 186 | – | B3 | Kd [4]: 600 nM; Kd [5]: 900 nM |
| – | – | ~100 | B4 | – |
| – | – | – | B5 | stoichiometry N [6]: 1 GRD1 per CDC42 (2:2); stoichiometry N [7]: 2 ratio 2:1 as printed (which partner is the 2 is not told) |
